± gives the uncertainty stated by the source.
Assay: amyloid nucleation score (Sup35N fusion, yeast selection) (log enrichment); library NNK1; higher = more nucleation; inactive = no reads after selection
In short: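 Peptides of 20 random codons fused to Sup35N were expressed in psi-negative yeast, induced 24 hours with 100 μM copper sulfate, then grown 7 days at 30°C on medium lacking adenine and uracil. Input and output plasmid inserts were Illumina-sequenced. Nucleation score is the DiMSum log enrichment of output over input reads, centred on the mode score of non-aggregating sequences, excluding sequences with under 100 input reads. Random libraries had three technical output replicates.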

| Substance | amyloid nucleation score |
| --- | --- |
| LTQWPGEGKV | -0.303 ± 0.8 |
| LTRLSNCVLGGSC | -0.512 ± 0.71 |
| LVCVFAWLFP | 7.41 ± 0.075 |
| LVILVVFGKRY | -0.139 ± 0.41 |
| LVKNHYHFMANLGCP | 0.133 ± 1.4 |
| LVKYKKV | -0.088 ± 0.43 |
| LVLMWLLSGYGAHHFYYAK | 0 ± 1.2 |
| LVMYDSL | 0.489 ± 0.58 |
| LVRDHRYFEFLASV | 0.381 ± 0.39 |
| LVRFSSVLCMQHQREV | 0.844 ± 0.55 |
| LVRKKVCTI | 0.543 ± 0.36 |
| LVRLTCDMNNFKCQLMFQIF | 1.17 ± 0.38 |
| LVSMYA | -0.859 ± 0.73 |
| LVSTYGEIQKLHGYLLGMLG | 0.002 ± 0.42 |
| LVSVCLGCEVCIFVVYIPNP | inactive |
| LVTCLLHAG | -1.38 ± 0.58 |
| LVTFRGGYNVDVIMWNNVRR | 3.69 ± 0.063 |
| LVVKQLLNSAGCTRPCTVRC | 0.164 ± 0.55 |
| LWGLVRSFFDIDNLKGFRTE | -0.257 ± 1.9 |
| LWLAFIIES | 0.338 ± 0.25 |
| LWLAVSSVNCHSRHLLVWVT | inactive |
| LWLHGGARNVDMCKVIFYFG | 6.94 ± 0.088 |
| LWLNLILCFQWDPQRKC | 4.09 ± 0.11 |
| LWSVCLVTSVQKDAGVLPSG | 0.85 ± 0.62 |
| LWYTALINTNACCVIRQDFR | 1.04 ± 0.8 |
| LYEDLWFRVREL | 1.11 ± 0.63 |

| Substance | amyloid nucleation score |
| --- | --- |
| LYEFRGGTHVGSDFSDVVFV | 1.05 ± 0.47 |
| LYFSTYVFLASTSGHLSRFD | -1.36 ± 2.1 |
| LYGSNVVLSVRCGMHTTHCY | 2.81 ± 0.24 |
| LYGYCFMLVSRESFLVRSGW | -0.272 ± 0.52 |
| LYIAH | -0.722 ± 0.42 |
| LYKEMTWRNWALSLKMSLRR | 0.146 ± 0.5 |
| LYLAQFQGNGDLFSVPPCKV | 0.16 ± 0.64 |
| LYLHNHGVWAYFKWCWGVRG | -0.257 ± 0.53 |
| LYLHSWAYVHKNTLNYL | -0.14 ± 0.5 |
| LYNIVCLSDIL | 5.88 ± 0.061 |
| LYRSGSPRTGWKLMSSSARR | 7.525 ± 0.07 |
| LYRSGSVMSSATHYRGAHLC | -0.556 ± 0.77 |
| LYRYEYDCNSLSMS | 2.73 ± 0.078 |
| LYSKGIPMACAQVVVYLNER | 6.49 ± 0.055 |
| LYSNVRRFVWRGTWMWSRRC | 0.969 ± 0.61 |
| LYTYALARCIFISFMDCRMN | 0.371 ± 0.26 |
| LYVEMEYSFDYYATKDRHQT | -0.842 ± 1.7 |
| LYVTVGWSLWYGSFAVMVVC | 0.026 ± 0.41 |
| LYVYTYYVMVLVGQKR | -0.698 ± 0.93 |
| LYWFAAWLATYIYAW | 0.109 ± 0.48 |
| MAACMYSCSMSAVEPLHTYS | 0.039 ± 0.67 |
| MACKIIYVTVEGMLRSRS | 1.31 ± 0.56 |
| MAEINYWTFSLVLELSARCV | -1.07 ± 1.2 |
| MAGLL | -0.546 ± 1.1 |
| MAKTFRLGGLDCHLNYVVWC | 0.113 ± 0.61 |
| MALFSCCCKVYKMG | 4.59 ± 0.1 |

| Substance | amyloid nucleation score |
| --- | --- |
| MAPRFIDVMQ | -0.94 ± 0.97 |
| MASLDGFLFNCWLRRLGFRA | -0.397 ± 0.4 |
| MCDGTFCGSSSGHCSASLRH | 0.728 ± 0.35 |
| MCFSVG | -0.148 ± 0.4 |
| MCKVHIIEHCSLYWRSCGIW | inactive |
| MCMSRP | -1.05 ± 0.9 |
| MDACCMFNVWLVSECGFRVH | 5.81 ± 0.064 |
| MDALMCYIFFKFE | 4.89 ± 0.064 |
| MDIFDTLAWTF | 0.632 ± 0.58 |
| MEICNCKDYFKAYRRFSHGS | 1.56 ± 0.27 |
| MEKLGAPYRFREPGMFVRFF | -1.1 ± 0.62 |
| MEVKISVRFQFVLI | -0.355 ± 0.6 |
| MFCRVVRGGCGSSIGC | 0.249 ± 0.79 |
| MFLCNVIYCFFLTYIWLTFF | 5.33 ± 0.11 |
| MFQPFPFIHQVDQPFPKSVQ | 0.51 ± 0.47 |
| MFRYNCRRAIQIVFMYLWTP | 0.779 ± 0.28 |
| MFTIF | 0.045 ± 0.3 |
| MFVSDQINYCMSTVAVH | 0.201 ± 0.27 |
| MGEATGSGISADDVYVQGEY | 4.26 ± 0.069 |
| MGIHIFSGRSCTIFLLPSLY | -0.582 ± 1.2 |
| MGIWSFDTVTRGAMTSVGDA | 0.252 ± 0.62 |
| MGLPVLVINNHTAKNGVTRA | 0.711 ± 0.73 |
| MGRRRAPRGGFILRYGCPCR | -0.039 ± 0.73 |
| MGVYTCR | inactive |
| MHEGKRLITGIDWWYVGVCW | 0.094 ± 0.9 |
| MHITDGCGG | -0.456 ± 0.3 |

| Substance | amyloid nucleation score |
| --- | --- |
| MHNIASC | 0.629 ± 0.48 |
| MHRYF | -0.286 ± 0.37 |
| MHTEFFGGMAHTTLWDVMSP | -0.977 ± 0.77 |
| MHWLDYSFELLDGQ | 1.01 ± 0.75 |
| MIAFYIVLLPVIRGYRSGCK | inactive |
| MIHEVTLY | 0.359 ± 0.41 |
| MILWPS | 1.64 ± 0.16 |
| MIMDVVKGFVFRSSINSKRY | 3.27 ± 0.088 |
| MINHSEPQHCMYV | 0.466 ± 0.9 |
| MISGPNFEVYRLAVINGRSW | 0.848 ± 0.58 |
| MITSDKIGSQWLQCRLKVAC | -0.43 ± 0.53 |
| MITSR | 1.11 ± 0.53 |
| MIVGGNLEEIVNHCYFCVER | 0.511 ± 0.24 |
| MIVILTGLLSTNGNLS | 1.64 ± 0.39 |
| MKAVELSPLKYTCLAN | 0.313 ± 0.74 |
| MKFDYFRRC | -0.471 ± 0.5 |
| MKFGGLSG | -0.171 ± 0.47 |
| MLANSLFFT | -1.23 ± 1.6 |
| MLCVGKA | -1.16 ± 0.64 |
| MLEDNLRVTTWPY | -0.407 ± 0.39 |
| MLFGC | -0.003 ± 0.41 |
| MLFNTHHVYLSTM | 0.987 ± 0.53 |
| MLKGMQSDSLKLNGDVDPCV | 0.175 ± 0.28 |
| MLKILNSSFFDTIVYAYITC | 3.6 ± 0.081 |
| MLKQMSSLGREEIYVF | -0.314 ± 0.99 |
| MLKRVVVLLRPSVRGRVDRV | -0.11 ± 0.28 |

| Substance | amyloid nucleation score |
| --- | --- |
| MLLRRKNIAGGYMVLEVGLS | -0.1 ± 0.31 |
| MLMLSGVF | -0.782 ± 0.53 |
| MLRTSARSQRGNRGLAKMGF | -1.87 ± 2.7 |
| MLSKIFAHYSWSQAVTRAWG | 1.75 ± 0.58 |
| MLSYQR | inactive |
| MLVCILSVFDKNPR | 2.78 ± 0.11 |
| MLVFNNFEPLFLFVSTWTCQ | 7.11 ± 0.06 |
| MMDNLVYQRYTCTF | 0.448 ± 0.79 |
| MMGASGFF | -0.14 ± 0.32 |
| MMKSRLDPCDNDNFFGRVSH | -0.257 ± 0.85 |
| MMLSGFDIIYGIALCPLHVQ | -0.14 ± 0.3 |
| MMLSVCISKLTFLVIRDLLV | 0.459 ± 0.23 |
| MMPYQSWDESSSCEDTLKVT | 0.453 ± 0.35 |
| MMTACLFIIF | 5.925 ± 0.057 |
| MNFDNGDFYWFVTRIISITC | 0.99 ± 0.19 |
| MNGSNRSCLFFCIGCVMPAW | 7.5 ± 0.081 |
| MNKIITRTRSMATSDSTRHS | 0.052 ± 0.67 |
| MNKLYITA | 0.035 ± 0.84 |
| MNKWSG | 1.4 ± 0.63 |
| MNMSKRFLRKLCERSRMPNR | 0.21 ± 0.61 |
| MNNKDDAVYVEHL | 0.072 ± 0.23 |
| MNPGG | -0.026 ± 0.21 |
| MNQLTFRTNRPPSTASVFAR | 1.01 ± 0.61 |
| MNRYFFYLIRVFLRGYH | -0.094 ± 0.64 |
| MNYFVMSHSNKLDASLCWRR | 1.52 ± 0.25 |
| MNYRQLL | 0.177 ± 0.7 |

| Substance | amyloid nucleation score |
| --- | --- |
| MPCRARVRDNSLSWTEHTNC | -0.248 ± 0.62 |
| MPGRNLRLNKVR | 0.273 ± 0.4 |
| MQFNVSWRNGWSRWIGVSDV | 6.519 ± 0.054 |
| MQIMRRIMWYDNSKVSF | -0.177 ± 0.2 |
| MRFKRRSGFGELGMFAFTPL | -0.628 ± 0.5 |
| MRGYPENKLSRSCQCRMRRY | -0.213 ± 0.74 |
| MRLERTNRGSAPWTLYYNQR | 1.09 ± 0.17 |
| MRLIVNSFTVGYEPRISWYV | 1.22 ± 0.24 |
| MRSGTVYMVYLVHLKSFKWL | -0.265 ± 0.68 |
| MRWIVWYVIS | -0.859 ± 1.4 |
| MSALARVMLSMRYRIGT | -0.395 ± 1.1 |
| MSDCPACGCSCHRSKLISGF | -0.414 ± 0.5 |
| MSDKSTWYC | 0.157 ± 0.61 |
| MSEVTMGLRTMFVIFNR | 2.79 ± 0.1 |
| MSFDGVEYRTCNVYVSVTWG | -0.133 ± 0.77 |
| MSFSCWFLS | 0.445 ± 0.88 |
| MSGAESYLHLDLCRVTGIAS | -0.24 ± 0.35 |
| MSHFCLSLGAAASMNPLQLG | -0.309 ± 1.1 |
| MSLMSPAYNATNYWAVWRHK | -0.029 ± 0.27 |
| MSRFLTLMHFERNFV | 0.566 ± 0.42 |
| MSTVFADLR | -0.292 ± 0.29 |
| MSYRD | -0.995 ± 1.7 |
| MTYITTGSSKYEGYKFTCMT | 0.502 ± 0.51 |
| MVAMVNT | -0.087 ± 0.28 |
| MVFFTCSEMDVYMWRGYFNY | -0.727 ± 0.28 |
| MVGNIYSSPFYPRYSLTNGT | -0.161 ± 0.83 |

| Substance | amyloid nucleation score |
| --- | --- |
| MVGRVARRVTMSVCSAVSGV | -0.237 ± 0.45 |
| MVMFHSSFLIDDTWICWNPF | 0.255 ± 0.47 |
| MVSLDWTSQLGR | 2.18 ± 0.54 |
| MVSNAGDIPMRRLESLRLLR | 0.748 ± 0.53 |
| MVSPPLNTSIYLIPCSSLCD | -0.407 ± 0.25 |
| MVVVLLVD | -0.438 ± 0.9 |
| MVVWWRHKVLKGHWL | -0.189 ± 0.61 |
| MWVFKTFCRRQRASVPNSLG | 0.034 ± 0.27 |
| MWVNLVWTAFLYKSILCRVF | 0.38 ± 1.2 |
| MWWCGSHSFSFYFRLRSDWR | 0.829 ± 1 |
| MYGLVLCIYVSHVVR | 1.54 ± 0.43 |
| MYIKRTGQTGWAVGGSRTPR | 1.11 ± 0.65 |
| MYISYSLNKTPIVFAPCTVH | -0.018 ± 0.48 |
| MYQVHTVSTVKIEMAYHAQG | 1.67 ± 0.26 |
| MYRDDAGFEGMF | 1.19 ± 0.61 |
| MYRQTEGLVRFKGRGPFKVE | 0.355 ± 0.4 |
| MYSISCIVNY | 2.56 ± 0.15 |
| MYTSDHNSGVASMCIVVGFF | 3.76 ± 0.08 |
| NACIPQVFCGSLLKFALQLW | 3.28 ± 0.088 |
| NALYSWAPLDCIMPRIVS | 0.299 ± 0.47 |
